{
  "source": "paper PMC4504036",
  "key": {"Human factor XII (human) [1]": {"biological_target": "Human factor XII (human)"}, "Human factor XII (human) [2]": {"biological_target": "Human factor XII (human)", "remark": "listed apart in the source"}, "[3]": {"biological_target": "Recombinant wild-type phospholipid transfer protein (rPLTP) (human) (UniProt P55058)", "assay": "SPR; BIAcore 3000; rPLTP with C-terminal His-tag captured on anti-His tag monoclonal antibody immobilised on a CM5 chip; factor XII (0-750 nM) or factor XI injected; 50 mM Hepes, 150 mM NaCl, 5 mM CaCl2, pH 7.4; global fit, simple Langmuir model; apparent Kd"}},
  "data": [
    {"substance": "Recombinant wild-type phospholipid transfer protein (rPLTP) (from UniProt P55058 18-493) (natural protein)", "values": [
      {"measurement": "inhibition by rPLTP of sulfatide-induced kallikrein generation (contact activation) in plasma (S2302 amidolytic activity at 6 min)", "setting": "Human factor XII (human) [1]", "value": 0.69, "unit": "µg/mL"},
      {"measurement": "inhibition by rPLTP of sulfatide-stimulated factor XII autoactivation in a purified system in the presence of VLDL (factor XIIa amidolytic activity, S2302, at 15 min)", "setting": "Human factor XII (human) [2]", "value": 1.2, "unit": "µg/mL"}
    ]},
    {"substance": "Human factor XII (natural protein)", "values": [
      {"measurement": "Kd", "setting": "[3]", "value": 190, "unit": "nM"},
      {"measurement": "koff", "setting": "[3]", "value": 0.006, "unit": "s⁻¹"},
      {"measurement": "kon", "setting": "[3]", "value": 31000, "unit": "M⁻¹ s⁻¹"}
    ]}
  ]
}
